B1: IAB22C-3 (other)
scFv: DVQITQSPSSLSASVGDRVTITCRTSRSISQYLAWYQQKPGKVPKLLIYSGSTLQSGVPSRFSGSGSGTDFTLTISSLQPEDVATYYCQQHNENPLTFGGGTKVEIKSGGGGEVQLVESGGGLVQPGGSLRLSCAASGFNIKDTYIHFVRQAPGKGLEWIGRIDPANDNTLYASKFQGKATISADTSKNTAYLQMNSLRAEDTAVYYCGRGYGYYVFDHWGQGTLVTVSSGGCPPCPPC
notes: Cys-diabody (scFv dimer); also called anti-CD8 Cys-diabody, 3 Cys (CPPCPPC)
B2: IAB22C-1 (other)
scFv: DVQITQSPSSLSASVGDRVTITCRTSRSISQYLAWYQQKPGKVPKLLIYSGSTLQSGVPSRFSGSGSGTDFTLTISSLQPEDVATYYCQQHNENPLTFGGGTKVEIKGGGSGGGGEVQLVESGGGLVQPGGSLRLSCAASGFNIKDTYIHFVRQAPGKGLEWIGRIDPANDNTLYASKFQGKATISADTSKNTAYLQMNSLRAEDTAVYYCGRGYGYYVFDHWGQGTLVTVSSGGC
notes: Cys-diabody (scFv dimer); also called anti-CD8 Cys-diabody, 1 Cys (GGC)
B3: IAB22C-2 (other)
scFv: DVQITQSPSSLSASVGDRVTITCRTSRSISQYLAWYQQKPGKVPKLLIYSGSTLQSGVPSRFSGSGSGTDFTLTISSLQPEDVATYYCQQHNENPLTFGGGTKVEIKSGGGGEVQLVESGGGLVQPGGSLRLSCAASGFNIKDTYIHFVRQAPGKGLEWIGRIDPANDNTLYASKFQGKATISADTSKNTAYLQMNSLRAEDTAVYYCGRGYGYYVFDHWGQGTLVTVSSGGCPPC
notes: Cys-diabody (scFv dimer); also called anti-CD8 Cys-diabody, 2 Cys (CPPC)

Biological target: T1, CD8 expressed on the surface of HPB-ALL cells (UniProt P01732 22-235)
T1 construct: whole, on cells
T1 sequence (P01732 22-235): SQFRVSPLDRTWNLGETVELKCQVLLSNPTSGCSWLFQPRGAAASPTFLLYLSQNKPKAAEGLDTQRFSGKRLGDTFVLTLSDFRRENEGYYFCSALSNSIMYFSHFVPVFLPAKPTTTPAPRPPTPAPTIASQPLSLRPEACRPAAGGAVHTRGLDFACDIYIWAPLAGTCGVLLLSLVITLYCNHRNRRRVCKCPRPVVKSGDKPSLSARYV
Assay: flow cytometry on HPB-ALL cells, MFI against concentration, four-parameter fit
Experimental: The cells were centrifuged at 400 rpm for 5 minutes, re-suspended in 200 uL of cell staining buffer (1% BSA in phosphate buffer saline, 0.09% sodium azide). Data were acquired on the Attune Acoustic Focusing Cytometer (Applied Biosystems, Foster City, Calif.) (FIG. 9A) and Mean Fluorescent Intensity (MFI) values were plotted against concentration for each sample (FIG. 9B). Best fit binding curves and IC₅₀ values were generated with four-parameter logistic nonlinear regression using GraphPad Prism version 6 for Windows (GraphPad Software, La Jolla, Calif.). and binding assessed on an Attune acoustic focusing cytometer (Applied Biosystems) (Table 4.3).

EC50 [nM] | Binder
0.13 | B1
0.08 | B2
0.15 | B3
